Source: patent publication US20240117030A1 (Pfizer, published 2024)
Positions count from the first letter of the chain named.

T1: human IL-4 (human, UniProt P05112 25-153)
T1 sequence (looked up): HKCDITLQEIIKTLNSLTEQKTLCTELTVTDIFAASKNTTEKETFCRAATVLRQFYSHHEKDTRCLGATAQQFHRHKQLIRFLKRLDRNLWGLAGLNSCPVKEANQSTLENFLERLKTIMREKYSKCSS

T2: recombinant human IL-33 (human, UniProt O95760 112-270, limits assumed)
T2 sequence (looked up): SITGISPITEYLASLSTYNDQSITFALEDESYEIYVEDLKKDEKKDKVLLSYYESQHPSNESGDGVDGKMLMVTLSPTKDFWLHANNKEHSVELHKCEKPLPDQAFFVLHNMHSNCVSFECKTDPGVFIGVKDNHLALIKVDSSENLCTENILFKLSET

T3: recombinant human IL-4 (human, UniProt P05112 25-153)
T3 sequence (looked up): T1 sequence (looked up)

B1: IL413TSLP-0248 (other)
heavy: EVQLVESGGGLVQPGGSLRLSCAASGFTFSSYAMSWVRQAPGKGLEWVASISSGDTTYYPDSVKGRFTISRDNAKNSLYLQMNSLRAEDTAVYYCARNEGYYFGLTLWGQGTLVTVSSASTKGPSVFPKAPSSKSTSGGTAALGCLVKDYFPEPVTVSWNSGALTSGVHTFPAVLQSSGLYSLSSSVTVPSSSLGTQTYICNVNHKPSNTKVDKKVEPKSCDKTHTCPPCPAPEAAGAPSVFLFPPKPKDTLMISRTPEVTCVVVDVSHEDPEVKFNWYVDGVEVHNAKTKPREEQYNSTYRVVSVLTVLHQDWLNGKEYKCKVSNKALPAPIEKTISKAKGQPREPQVCTLPPSREEMTKNQVSLWCLVKGFYPSDIAVEWESNGQPENNYKTTPPVLDSDGSFFLYSKLTVDKSRWQQGNVFSCSVMHEALHNHYTQKSLSLSPGK
chain 1: SYVLTQPPSVSVAPGQTARITCGGNNLGSKSVHWYQQKPGQAPVLVVYDDSDRPSWIPERFSGSNSGNTATLTISRGEAGDEADYYCQVWDSSSDHVVFGGGTKLTVLGQPKAAPSVTLFPPSSEELQANKATLVCLISDFYPGAVTVAWKADSSPVKAGVETTTPSKQSNNKYAASSYLSLTPEQWKSHRSYSCQVTHEGSTVEKTVAPTECSGGGGSEVTLRESGPALVKPTQTLTLTCTFSGFSLSNFGEGLSWIRQPPGKGLEWLAHIYWDDDKRYNPSLKSRLTISKDTSRNQVVLTMTNMDPVDTATYYCARRETVFYWYFDVWGQGTTVTVSSASTKGPSVFPEAPSSKSTSGGTAALGCLVKDYFPEPVTVSWNSGALTSGVHTFPAVLQSSGLYSLGSVVTVPSSSLGTQTYICNVNHKPSNTKVDKKVEPKSCDKTHTCPPCPAPEAAGAPSVFLFPPKPKDTLMISRTPEVTCVVVDVSHEDPEVKFNWYVDGVEVHNAKTKPREEQYNSTYRVVSVLTVLHQDWLNGKEYKCKVSNKALPAPIEKTISKAKGQPREPQVYTLPPCREEMTKNQVSLSCAVKGFYPSDIAVEWESNGQPENNYKTTPPVLDSDGSFFLVSKLTVDKSRWQQGNVFSCSVMHEALHNHYTQKSLSLSPGK
light 1: DIQMTQSPSSLSASVGDRVTITCKASESVDHFGWSLVHWYQQKPGKAPKLLIYRASNLESGVPSRFSGSGSGTDFTLTISSLQPEDFATYYCQQSNEDPWTFGGGTKVEIKRTVAAPSVFIFPPSDEQLKSGTASVSCLLNNFYPREAKVQWKVDNALQSGNSQESVTEQDSKDSTYSLDSTLTLSKADYEKHKVYACEVTHQGLSSPVTKSFNRGEC
light 2: B1 light 1 with E27Q, H31E, F32D, W34D, L36Y, V37M, H38N, R54A, W100P, D180K
chain 2: not shown
B2: IL413TSLP-0250 (other)
heavy: EVTLRESGPALVKPTQTLTLTCTFSGFSLSNFGEGLSWIRQPPGKGLEWLAHIYWDDDKRYNPSLKSRLTISKDTSRNQVVLTMTNMDPVDTATYYCARRETVFYWYFDVWGQGTTVTVSSASTKGPSVFPEAPSSKSTSGGTAALGCLVKDYFPEPVTVSWNSGALTSGVHTFPAVLQSSGLYSLGSVVTVPSSSLGTQTYICNVNHKPSNTKVDKKVEPKSCDKTHTCPPCPAPEAAGAPSVFLFPPKPKDTLMISRTPEVTCVVVDVSHEDPEVKFNWYVDGVEVHNAKTKPREEQYNSTYRVVSVLTVLHQDWLNGKEYKCKVSNKALPAPIEKTISKAKGQPREPQVYTLPPCREEMTKNQVSLSCAVKGFYPSDIAVEWESNGQPENNYKTTPPVLDSDGSFFLVSKLTVDKSRWQQGNVFSCSVMHEALHNHYTQKSLSLSPGK
chain 1: SYVLTQPPSVSVAPGQTARITCGGNNLGSKSVHWYQQKPGQAPVLVVYDDSDRPSWIPERFSGSNSGNTATLTISRGEAGDEADYYCQVWDSSSDHVVFGGGTKLTVLGQPKAAPSVTLFPPSSEELQANKATLVCLISDFYPGAVTVAWKADSSPVKAGVETTTPSKQSNNKYAASSYLSLTPEQWKSHRSYSCQVTHEGSTVEKTVAPTECSGGGGSEVQLVESGGGLVQPGGSLRLSCAASGFTFSSYAMSWVRQAPGKGLEWVASISSGDTTYYPDSVKGRFTISRDNAKNSLYLQMNSLRAEDTAVYYCARNEGYYFGLTLWGQGTLVTVSSASTKGPSVFPKAPSSKSTSGGTAALGCLVKDYFPEPVTVSWNSGALTSGVHTFPAVLQSSGLYSLSSSVTVPSSSLGTQTYICNVNHKPSNTKVDKKVEPKSCDKTHTCPPCPAPEAAGAPSVFLFPPKPKDTLMISRTPEVTCVVVDVSHEDPEVKFNWYVDGVEVHNAKTKPREEQYNSTYRVVSVLTVLHQDWLNGKEYKCKVSNKALPAPIEKTISKAKGQPREPQVCTLPPSREEMTKNQVSLWCLVKGFYPSDIAVEWESNGQPENNYKTTPPVLDSDGSFFLYSKLTVDKSRWQQGNVFSCSVMHEALHNHYTQKSLSLSPGK
light 1: B1 light 1 with E27Q, H31E, F32D, W34D, L36Y, V37M, H38N, R54A, W100P, D180K
light 2: B1 light 1
chain 2: not shown
B3: IL13433-0006 (other)
heavy: B1 heavy
chain 1: DIQMTQSPSSLSASVGDRVTITCKASQNINKHLDWYQQKPGKAPKLLIYFTNNLQTGVPSRFSGSGSGTDFTLTISSLQPEDFATYYCFQYNQGWTFGGGTKVEIKRTVAAPSVFIFPPSDEQLKSGTASVVCLLNNFYPREAKVQWKVDNALQSGNSQESVTEQDSKDSTYSLSSTLTLSKADYEKHKVYACEVTHQGLSSPVTKSFNRGECGGGGSEVTLRESGPALVKPTQTLTLTCTFSGFSLSNFGEGLSWIRQPPGKGLEWLAHIYWDDDKRYNPSLKSRLTISKDTSRNQVVLTMTNMDPVDTATYYCARRETVFYWYFDVWGQGTTVTVSSASTKGPSVFPEAPSSKSTSGGTAALGCLVKDYFPEPVTVSWNSGALTSGVHTFPAVLQSSGLYSLGSVVTVPSSSLGTQTYICNVNHKPSNTKVDKKVEPKSCDKTHTCPPCPAPEAAGAPSVFLFPPKPKDTLMISRTPEVTCVVVDVSHEDPEVKFNWYVDGVEVHNAKTKPREEQYNSTYRVVSVLTVLHQDWLNGKEYKCKVSNKALPAPIEKTISKAKGQPREPQVYTLPPCREEMTKNQVSLSCAVKGFYPSDIAVEWESNGQPENNYKTTPPVLDSDGSFFLVSKLTVDKSRWQQGNVFSCSVMHEALHNHYTQKSLSLSPGK
light 1: B1 light 1
light 2: B1 light 1 with E27Q, H31E, F32D, W34D, L36Y, V37M, H38N, R54A, W100P, D180K
chain 2: EVQLVESGGGLVQPGGSLRLSCAASGFTFSSYWMYWVRQAPGKGLEWVAAITPNAGEDYYPESVKGRFTISRDNAKNSLYLQMNSLRAEDTAVYYCARGHYYYTSYSLGYWGQGTLVTVSSASTKGPSVFPLAPSSKSTSGGTAALGCLVKDYFPEPVTVSWNSGALTSGVHTFPAVLQSSGLYSLSSVVTVPSSSLGTQTYICNVNHKPSNTKVDKKVEPKSC
B4: IL13-0001 (antibody, human IgG1, kappa, V domains shown)
VH: EVQLVESGGGLVQPGGSLRLSCAASGFTFSSYAMSWVRQAPGKGLEWVASISSGDTTYYPDSVKGRFTISRDNAKNSLYLQMNSLRAEDTAVYYCARNEGYYFGLTLWGQGTLVTVSS
VL: DIQMTQSPSSLSASVGDRVTITCKASESVDHFGWSLVHWYQQKPGKAPKLLIYRASNLESGVPSRFSGSGSGTDFTLTISSLQPEDFATYYCQQSNEDPWTFGGGTKVEIKR

Legend:
Assay in all cases: cell-based or functional assay
[1] = molecular target: T1, human IL-4
[2] = molecular target: human IL-13 (human, UniProt P35225 35-146)
[3] = molecular target: T2, recombinant human IL-33
[4] = molecular target: T3, recombinant human IL-4
[5] = molecular target: recombinant human IL-13 (human, UniProt P35225 35-146)
recombinant human IL-13, sequence (P35225 35-146 limits assumed): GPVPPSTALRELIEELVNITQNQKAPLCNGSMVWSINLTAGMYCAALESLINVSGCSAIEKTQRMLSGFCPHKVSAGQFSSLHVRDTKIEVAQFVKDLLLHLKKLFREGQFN

human IL-13, sequence (P35225 35-146 limits assumed): as above

| Binder | a-hIL-4 bioassay IC50, pM) [1] [pM] | a-hIL-13 bioassay (IC50, pM) [2] [pM] | IL-33 WT Activation of SEAP Reporter Cells, potency of cytokine neutralization [3] [nM] | IL-4 Induced CD23 Expression, potency of cytokine neutralization [4] [nM] | IL-13 Induced CD23 Expression, potency of cytokine neutralization [5] [nM] |
| --- | --- | --- | --- | --- | --- |
| B1 | 5.11 | 15.6 | – | – | – |
| B2 | 3.68 | 102 | – | – | – |
| B3 | – | – | 0.112 | 0.0103 | 0.00901 |
| B4 | – | 5.79 | – | – | – |
